The text below walks through data of patent EP0866131A2.

For this assay, the target named is human Fas antigen on HPB-ALL cells (human) (UniProt P25445). Kind of assay: cell-based or functional assay.
UniProt P25445, sequence (P25445 26-335): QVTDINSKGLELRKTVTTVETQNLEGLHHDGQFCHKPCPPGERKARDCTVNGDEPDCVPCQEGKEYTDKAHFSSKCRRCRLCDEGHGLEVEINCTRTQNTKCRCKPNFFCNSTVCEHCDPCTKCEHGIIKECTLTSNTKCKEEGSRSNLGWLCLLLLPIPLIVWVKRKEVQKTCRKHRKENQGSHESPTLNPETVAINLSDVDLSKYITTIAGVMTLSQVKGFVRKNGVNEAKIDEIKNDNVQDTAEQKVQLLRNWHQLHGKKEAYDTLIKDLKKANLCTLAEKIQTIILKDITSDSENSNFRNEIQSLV

Take “mouse anti-human Fas monoclonal antibody CH11”: the ED50 (ng/ml), cytotoxic activity on HPB-ALL cells turned out to be 10.7 ng/mL.
